Data set [1] concerns the target T1, C-C chemokine receptor type 5 (CCR5) (Homo sapiens, UniProt P51681 P51681:1-352). The experiment in a line: cell_activity; HIV-1 R5 JR-FL p24 day 3; day 5 142.6 ± 41.3, day 7 79.3 ± 21.6; siRNA also contributes. The conditions noted are these: tags: endogenous on primary PBMC-CD4+ cells; label: Cy3 on aptamer-sense strand, Cy5 on antisense strand; aptamer with UU linker and siRNA duplex, 2-nt 3' overhang.

Data set [2] has as its target T1, C-C chemokine receptor type 5 (CCR5). The experiment in a line: cell_activity; HIV-1 R5 BaL p24 day 3; day 5 245.5 ± 35.76, day 7 243.2 ± 46.16. Conditions: tags: endogenous on in vivo generated human CD4+ T cells.
The target is the same in data set [3]. The data set can be described thus: cell_activity; HIV-1 R5 JR-FL p24 day 3; day 5 58.51 ± 11.22, day 7 17.09 ± 5.90; X4 NL4-3 not converged. The conditions noted are these: tags: endogenous on in vivo generated human CD4+ T cells.
For data set [4] the target is unchanged. The experiment in a line: cell_activity; HIV-1 R5 JR-FL p24 day 3; day 5 232.6 ± 38.3, day 7 170.4 ± 47.0; X4 strains IIIB and NL4-3 not inhibited. The conditions noted are these: tags: endogenous on primary PBMC-CD4+ cells. The protocol:
(§1) PBMCs were freshly isolated from healthy donors and CD8 cells were depleted as described above. After culture for 3 days in the activated T-cell culture medium containing interleukin-2, the cell-surface CCR5 level of PBMCs was detected by flow cytometry as described previously. HIV-1 protection assay was performed in 24-well tissue culture plates. Duplicate night-point dilution series of experimental RNAs were prepared and refolded in refolding buffer. PBMCs were washed once with pre-warmed PBS, and 4×10^5 PBMCs were seeded to each well of assay plates. Subsequently, experimental RNAs with different concentrations were added. Plates were incubated for 4-6 hours at 37° C. in a humidified 5% CO_2 incubator. Various viruses (R5 strains: JR-FL, Bal, MOI=0.01; or X4 strains: IIIB, NL4-3, MOI=0.001) were added into each well. After 24 hours incubation, the cells were gently washed with pre-warmed PBS to eliminate free viruses and were incubated sequentially at 37° C. in a humidified 5% CO_2 incubator.
(§2) The $IC50$ value of G-3 aptamer was indicated here. G-3 aptamers with different concentrations were incubated with primary PBMCs. After 4-6 hours incubation, various viruses (R5 strains: JR-FL, Bal; or X4 strains: IIIB, NL4-3) were added into each well. The culture supernatants were collected at different time points after infection for HIV-1 p24 antigen ELISA assay. […]

The target is the same in data set [5]. The data set can be described thus: cell_activity; HIV-1 R5 BaL p24 day 3; day 5 354.3 ± 113.3, day 7 >1000. The conditions noted are these: tags: endogenous on primary PBMC-CD4+ cells. The protocol:
as §1, §2

The target is the same in data set [6]. The data set can be described thus: flow; apparent Kd, live cells, RT 30 min, DPBS with 1 mM Ca2+/1 mM Mg2+ and tRNA; R2 0.95; reduced by CCR5 siRNA knockdown; no binding to CCR5-negative U373-Magi. The conditions noted are these: tags: U373-Magi-CCR5E cells. The protocol: Adherent cell lines (U373-Magi cells and U373-Magi-CCR5E cells) were washed with pre-warmed PBS and detached with Cell stripper. Suspension cell lines (CEM-NKr cells, CEM-NKr-CCR5 cells, and PBMCs) were washed twice with pre-warmed PBS. After counting the cells' number, the desired number of cells was resuspended in 100 µL binding buffer containing Cy3-labeled experimental RNA aptamers at different concentrations as shown. After incubation at room temperature for 30 min, cells were washed three times with 500 µL of pre-warmed binding buffer, and finally resuspended in 350 µL of DPBS for flow cytometry analysis (Flow cytometry core, City of Hope, CA). The dissociation constants were calculated using nonliner curve regression with a Graph Pad Prism 6.0.

T1 sequence (P51681 whole entry, one chain of several): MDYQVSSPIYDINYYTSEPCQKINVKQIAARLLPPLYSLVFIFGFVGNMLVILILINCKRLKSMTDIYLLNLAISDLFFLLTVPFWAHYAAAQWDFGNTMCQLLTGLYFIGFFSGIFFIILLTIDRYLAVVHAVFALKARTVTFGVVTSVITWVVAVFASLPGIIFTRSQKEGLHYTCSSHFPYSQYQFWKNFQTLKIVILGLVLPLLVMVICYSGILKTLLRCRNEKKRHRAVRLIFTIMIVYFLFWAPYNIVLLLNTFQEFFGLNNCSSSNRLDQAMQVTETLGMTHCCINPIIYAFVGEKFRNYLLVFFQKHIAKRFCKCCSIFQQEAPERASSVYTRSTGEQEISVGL

B1: G-3-TNPO3 27-mer OVH chimera (mixed)
RNA 1: GGGAGGACGAUGCGGGCCUUCGUUUGUUUCGUCCACAGACGACUCGCCCGAUUCAAAGCCGACAUUGCAGCUCGUGUACC
RNA 2: UACACGAGCUGCAAUGUCGGCUUUG
modifications: 2'-F pyrimidines in sense strand (transcribed)
For the molecule B1, the IC50 – broadly, the concentration needed to halve the response being measured – in data set [1] is 23.2 nM. In other words, the double-digit nanomolar range.

B2: G-3 aptamer (ssRNA)
RNA: GGGAGGACGAUGCGGGCCUUCGUUUGUUUCGUCCACAGACGACUCGCCCGA
modifications: 2'-F pyrimidines (2'-F-C, 2'-F-U)
Take B2: the IC50 came out at 148 nM in data set [2], 48 nM in data set [3], 220 nM in data set [4] and 349 nM in data set [5]. In data set [6], the Kd was 111 nM.

These data come from patent US9605266, “Cell-specific internalizing RNA aptamers against human CCR5 and uses therefore” (CITY OF HOPE).
